In publication PMC9581989:

Molecular target: Lactococcus lactis pyruvate carboxylase (Lactococcus lactis)
Assay: cryo-EM structure; LlPC under reaction conditions: 0.1 uM LlPC, 2 mM acetyl-CoA, 20 mM pyruvate, 2 mM ATP, 10 mM KHCO3, 5 mM MgCl2, 2 mM DTT, 200 mM NaCl, 20 mM Tris pH 7.6; symmetry expansion, focused classification of BC and CT domains

Substance: Lactococcus lactis pyruvate carboxylase (enzyme)
- stoichiometry N: 4
